According to the supplement of paper PMC12042874:
± gives the uncertainty stated by the source.

Assay: amyloid nucleation score (Sup35N fusion, yeast selection) (log enrichment); library NNK3; higher = more nucleation; inactive = no reads after selection
Outline: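 The nucleation score equals the log enrichment of output over input reads from DiMSum, centred on the mode score of non-aggregating sequences. It was computed only for sequences with 100 or more input reads. The reads came from Illumina sequencing of plasmid inserts from psi-negative yeast expressing Sup35N fused to peptides of 20 random codons, induced with 100 μM copper sulfate for 24 hours and grown 7 days at 30°C without adenine and uracil.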

Substance	amyloid nucleation score
DLQFGVGVTASPAAYCRYLS	inactive
DLQYLMLHVHNFYICDRYQP	inactive
DLVRAMRCHSVGDVGYASSS	inactive
DMDDHPDYHRNTND	inactive
DMFNLNLFGLLNCLGVMEET	1.31 ± 0.072
DMGTTCPSCSKRLAGQGKAA	inactive
DMMYVIRIFFLATEYSSLHP	inactive
DMSPRMTLSIKSA	inactive
DNDVHKELFSPAASLSSTWS	inactive
DNHVVKVQL	inactive
DPGHGS	inactive
DPYFVG	inactive
DQAYWKQCSMSIWYGFRRLV	inactive
DQMTHFYYPRNRPRFAISLA	inactive
DRCWMCLEAALQVAACVGSG	inactive
DRFFTSFSVCSPNDDKGLL	inactive
DRGVLFRHIILGSPHIMNRV	inactive
DRISGFVIKYNFNLSFSEMW	0.52 ± 0.17
DRKLLYY	inactive
DRPSWNMRSLNFSGQSVR	-0.59 ± 1.4
DRRNNVRFVVLFSRRYCGQA	inactive
DRSDNRSGYFMINVVYNDGE	0.724 ± 0.18
DRVCSSRML	inactive
DRVDIRATADELGLR	inactive

Substance	amyloid nucleation score
DSCAIES	inactive
DSCTDEENM	inactive
DSFVLYALCNYWCSFCIKGA	1.8 ± 0.09
DSIRLLLALPH	inactive
DSISCCSPNITAYEFYGLTG	2.06 ± 0.066
DSKSSYK	inactive
DSMLVISVRVRTCMLGNVVA	inactive
DSSKWHAMYMLTKMKMTGWL	inactive
DSSPVPKGYNRVRPLVNLAV	inactive
DSVNRCFARGILSCLVCL	inactive
DSVRASSLLWMFWCIVEFHG	inactive
DSWHFFCFIMVCIVKYWFFA	inactive
DSYSIILCFHKNKLLVLLSP	0.156 ± 0.42
DTNGMMRAMLRYPIIRFLYA	-0.402 ± 0.63
DTRVGP	inactive
DTSGSCSILTRSRNMSFWRR	inactive
DTSTSMFRRVMEATVSTSLL	inactive
DTSVYFQSSTCCAKKSGHKP	inactive
DTVMRSVLEAIVYINKIFVR	inactive
DTYIGNINESMH	inactive
DVCGFYIHFRFTNKYQGVAS	inactive
DVCLGWAQTAFRCLMRG	inactive
DVFSNMSWYYCNVIWNAYDM	0.196 ± 0.52
DVLLVIKVDYQVGLARVSRL	inactive

Substance	amyloid nucleation score
DVPVKNSYDFMYDCWAMPCS	inactive
DVRFVRDAGAVFLIILSERH	inactive
DVRRWNNYDLRGWVVA	inactive
DVTTDDSSFRYMLKLLRGIT	inactive
DVYKNPLSEQPSRYCTE	inactive
DWLMPIFQVNIEMLWLSWLW	inactive
DWVMADRMSPVKIMYATSSG	inactive
DYESCEIRVLETEWIGVGT	inactive
DYGSFMYSLTSCMVNYWYMA	inactive
DYIRHSFHCVLILSDKSHFS	inactive
DYSHLCSNIQGIAFVVVIQN	inactive
DYTGT	-0.191 ± 0.74
DYYGLK	inactive
DYYSCFISYRLIRYWICGEA	inactive
EAYDGKSSICSRCS	inactive
ECCDFSGCRCTSS	-0.498 ± 0.91
ECYCWFVNWLSFCKNGYSGM	inactive
EDAWMIVRISGC	inactive
EDFLNSWKVSYWKNHTMVVW	inactive
EDHCSLFKLSAFTAYTGLAL	inactive
EDSRLLGC	0.724 ± 0.14
EEMLRHCHKIRERWGSKSFE	inactive
EERRDLAPTDLTWKDFRALQ	inactive
EFFAPSVTDQMLTFRLLYKT	0.821 ± 0.26

Substance	amyloid nucleation score
EFMAGNDSRIQCSRIRGCYG	inactive
EFSVLWMLQMDHSTLKFANS	inactive
EFYFATRMMF	1.09 ± 0.092
EGFPV	inactive
EGMEWVVEDNFRKMCYTARF	inactive
EGNMLASRSSGEPS	inactive
EGPVSGPC	inactive
EGRNFRCLFG	inactive
EGRSNNLCSSSSLWQVHAAL	inactive
EGSHVPIILGYREFCVFILT	inactive
EGSNI	1.05 ± 0.17
EGVFHACDSTGT	-0.737 ± 1.5
EICGCCWKPVMWTGRCSCVY	inactive
EICKSLKLCNIWNCRIMLRS	inactive
EIGSHIGDVQHRVFYNVTLV	inactive
EIQSVMLYIASTFSILYLRH	inactive
EKFRWQSISIEVECSMAVQH	inactive
EKLIVNDYCRRSGPDMVAVD	inactive
EKMAADQSS	inactive
EKYRNGGY	inactive
ELFILHSGGGWCSGI	0.926 ± 0.16
ELFMPDSIRT	inactive
ELGFCNWGGLSWLNQDSSGV	-0.085 ± 1
ELLVNN	inactive

Substance	amyloid nucleation score
EMSWRSVKSSHYKQMEFSGR	inactive
ENCAWSRIIRRFNECNTLV	inactive
ENERM	inactive
EPGSANRSSESNCRVGGTDD	inactive
EPTVC	inactive
EQKGKQFEVSVDSYSTWEVG	inactive
EQRLSSGRWVS	inactive
ERFYTLVI	inactive
ERKCLLCNYHMY	inactive
ERNAGLITAFYFYSPFGTMM	inactive
ERRRVRP	inactive
ERSVPSGE	inactive
ESAKFYLYSAR	inactive
ESFHMFFFQLLSYCFSNCGW	inactive
ESFPFVSASDCSCSNR	inactive
ESFWVML	inactive
ESIRCFSTYKNGSIRSFRAL	inactive
ESIYVNPGDSL	inactive
ESLAWS	inactive
ESLIRVICMVDERSEQTWSG	inactive
ESMRGSYSYYSSGCLHD	inactive
ESWVFRTRDMPGEFTSSVCM	inactive
ETFFIYDVALQ	inactive
